Results reported in article PMC2783965.
Like-named read-outs stand apart in the source and are kept apart here.

Columns and labels:
Test in all cases: FRET or BRET
[1] = molecular target: 43S pre-initiation complex without eIF1 (40S•eIF1A-TAMRA•TC) (S. cerevisiae) (UniProt P38912)
[2] = molecular target: 43S pre-initiation complex without eIF1 (40S•eIF1A-TAMRA•TC) (S. cerevisiae) (UniProt P38912); remark: listed apart in the source
[3] = molecular target: 43S pre-initiation complex without eIF1 (40S•eIF1A-TAMRA•TC) (S. cerevisiae) (UniProt P38912); remark: listed apart in the source
[4] = molecular target: 43S pre-initiation complex without eIF1 (40S•eIF1A-TAMRA•TC) (S. cerevisiae) (UniProt P38912); remark: listed apart in the source
[5] = molecular target: 43S pre-initiation complex without eIF1 (40S•eIF1A-TAMRA•TC) (S. cerevisiae) (UniProt P38912); remark: listed apart in the source

Sequence of UniProt P38912 (P38912 whole entry, looked up, one chain of several): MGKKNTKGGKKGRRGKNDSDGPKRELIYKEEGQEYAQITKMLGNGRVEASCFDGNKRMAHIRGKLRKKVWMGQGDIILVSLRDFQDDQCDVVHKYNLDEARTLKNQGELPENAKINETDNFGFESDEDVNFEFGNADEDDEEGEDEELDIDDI

Substance | kobs of eIF1 dissociation (slow phase) [1] | kobs of eIF1 dissociation (slow phase) [2] | kobs of eIF1 dissociation (slow phase) [3] | kobs of eIF1 dissociation (slow phase) [4] | kobs of eIF1 dissociation (slow phase) [5]
fluorescein-labeled WT eIF1 (from UniProt P32911 1-108) (natural protein) | 0.14 s⁻¹ | 0.56 s⁻¹ | 0.4 s⁻¹ | 0.4 s⁻¹ | 0.13 s⁻¹
fluorescein-labeled G107K eIF1 (from UniProt P32911 1-108) (natural protein) | – | – | – | 0.1 s⁻¹ | 0.08 s⁻¹
